Data: IntAct's records for PubMed 22510990

B1: Protein Niban 1 (Homo sapiens), Q9BZQ8 (parent)
chain: MGGSASSQLDEGKCAYIRGKTEAAIKNFSPYYSRQYSVAFCNHVRTEVEQQRDLTSQFLKTKPPLAPGTILYEAELSQFSEDIKKWKERYVVVKNDYAVESYENKEAYQRGAAPKCRILPAGGKVLTSEDEYNLLSDRHFPDPLASSEKENTQPFVVLPKEFPVYLWQPFFRHGYFCFHEAADQKRFSALLSDCVRHLNHDYMKQMTFEAQAFLEAVQFFRQEKGHYGSWEMITGDEIQILSNLVMEELLPTLQTDLLPKMKGKKNDRKRTWLGLLEEAYTLVQHQVSEGLSALKEECRALTKGLEGTIRSDMDQIVNSKNYLIGKIKAMVAQPAEKSCLESVQPFLASILEELMGPVSSGFSEVRVLFEKEVNEVSQNFQTTKDSVQLKEHLDRLMNLPLHSVKMEPCYTKVNLLHERLQDLKSRFRFPHIDLVVQRTQNYMQELMENAVFTFEQLLSPHLQGEASKTAVAIEKVKLRVLKQYDYDSSTIRKKIFQEALVQITLPTVQKALASTCKPELQKYEQFIFADHTNMIHVENVYEEILHQILLDETLKVIKEAAILKKHNLFEDNMALPSESVSSLTDLKPPTGSNQASPARRASAILPGVLGSETLSNEVFQESEEEKQPEVPSSLAKGESLSLPGPSPPPDGTEQVIISRVDDPVVNPVATEDTAGLPGTCSSELEFGGTLEDEEPAQEEPEPITASGSLKALRKLLTASVEVPVDSAPVMEEDTNGESHVPQENEEEEEKEPSQAAAIHPDNCEESEVSEREAQPPCPEAHGEELGGFPEVGSPASPPASGGLTEEPLGPMEGELPGEACTLTAHEGRGGKCTEEGDASQQEGCTLGSDPICLSESQVSEEQEEMGGQSSAAQATASVNAEEIKVARIHECQWVVEDAPNPDVLLSHKDDVKEGEGGQESFPELPSEE

Variants of: B1
Conditions: with npm_human NPM1, P06748
Sequence of npm_human NPM1, P06748 (P06748 whole entry): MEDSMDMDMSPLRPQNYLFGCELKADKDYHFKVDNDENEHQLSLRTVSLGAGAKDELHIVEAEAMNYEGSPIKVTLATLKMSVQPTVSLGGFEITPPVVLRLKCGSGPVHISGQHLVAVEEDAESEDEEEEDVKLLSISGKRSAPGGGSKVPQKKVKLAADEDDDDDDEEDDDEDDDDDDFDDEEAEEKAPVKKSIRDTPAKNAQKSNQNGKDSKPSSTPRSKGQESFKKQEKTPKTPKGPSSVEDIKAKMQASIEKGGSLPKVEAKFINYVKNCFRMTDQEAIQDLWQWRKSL

Row | effect of a mutation on the interaction | Variant
1 | increasing interaction | S602D

Variants of: B1
Conditions: with npm_human NPM1, P06748
Remark: another data set of the same source

Row | effect of a mutation on the interaction | Variant
2 | decreasing interaction | S602A
